{"source": "patent US20230118024A1", "about": "(Chugai, published 2023)", "binders": {"B1": {"name": "IC17 (antibody, V domains shown)", "VH": "QVQLQQSGPQLVRPGASVNISCKASGYSFTSYWMHWVNQRPGQGLEWIGMIDPSYSETRLNQKFKDKATLTVDKSSSTAYMQLSSPTSEDSAVYYCALYGNYFDYWGQGTTLTVSS", "VL": "DIQMTQSSSSFSVSLGDRVTITCKASEDIYNRLAWYQQKPGNAPRLLISGATSLETGVPSRFSGSGSGKDYTLSITSLQTEDVATYYCQQYWSTPYTFGGGTKLEVK", "notes": "also called IC17H; IC17L"}, "B2": {"name": "DQN0089ff (antibody, V domains shown)", "VH": "QEQVVEYGGDLVQPEGSLTLTCKASGLDFSSTYYMCWVRQAPGKGLEWIGCIYGGSSDSTYYASWAKGRFTISKTSPTTVTLQMTSLTAADTATHFCATYDYGAVGYDLWGPGTLVTVSS", "VL": "EVVVTQTPASVEVAVGGTVTIKCQASQNISPYLSWYQQKPGQPPKLLIYKASTLASGVSSRFKGSGSGTQFTLTISDLECADAATYYCQNNYGVSINYGHTFGGGTKVEIK", "notes": "also called DQN0089Hf; DQN0089Lf"}}, "key": {"HLA-DQ8 on Ba/F3 cells": {"target": "T1, HLA-DQ8 on Ba/F3 cells (human, UniProt P01909 24-254; P01920 33-261)", "T1 construct": "also called Ba/F3-HLA-DQ8", "T1 MHC II alpha": "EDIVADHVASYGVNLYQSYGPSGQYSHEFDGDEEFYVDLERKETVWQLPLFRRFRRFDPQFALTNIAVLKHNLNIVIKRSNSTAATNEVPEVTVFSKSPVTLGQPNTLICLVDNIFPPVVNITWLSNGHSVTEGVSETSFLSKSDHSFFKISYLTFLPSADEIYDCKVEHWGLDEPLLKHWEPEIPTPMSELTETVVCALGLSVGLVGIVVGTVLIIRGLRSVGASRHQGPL", "T1 MHC II beta": "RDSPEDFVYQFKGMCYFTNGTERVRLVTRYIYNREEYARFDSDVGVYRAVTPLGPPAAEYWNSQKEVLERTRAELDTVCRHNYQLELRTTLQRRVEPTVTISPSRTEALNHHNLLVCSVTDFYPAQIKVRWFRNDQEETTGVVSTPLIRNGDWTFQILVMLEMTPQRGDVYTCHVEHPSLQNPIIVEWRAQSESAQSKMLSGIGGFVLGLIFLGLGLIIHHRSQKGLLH", "assay": "FACS, Ba/F3 cells expressing the target, goat F(ab')2 anti-human IgG-PE (Example 10)"}, "HLA-DP on Ba/F3 cells [1]": {"target": "T2, HLA-DP on Ba/F3 cells (human, UniProt P20036 29-222; P04440 30-225, limits assumed)", "T2 construct": "whole, on cells; also called Ba/F3-HLA-DP", "T2 sequence (P20036 29-222 limits assumed, chain 1 of 4, other chains not shown)": "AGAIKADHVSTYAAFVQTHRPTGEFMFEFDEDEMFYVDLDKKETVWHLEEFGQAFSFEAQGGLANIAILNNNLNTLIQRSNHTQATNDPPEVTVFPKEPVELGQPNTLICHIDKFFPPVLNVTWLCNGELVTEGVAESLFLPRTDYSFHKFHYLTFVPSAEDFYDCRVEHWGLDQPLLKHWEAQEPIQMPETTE", "T2 sequence (P04440 30-225 limits assumed, chain 2 of 4, other chains not shown)": "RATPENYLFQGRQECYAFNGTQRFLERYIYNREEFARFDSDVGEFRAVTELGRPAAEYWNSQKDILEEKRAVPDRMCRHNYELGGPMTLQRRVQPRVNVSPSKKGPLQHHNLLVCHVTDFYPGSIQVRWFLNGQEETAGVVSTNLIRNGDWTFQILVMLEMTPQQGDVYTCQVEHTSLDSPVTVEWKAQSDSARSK", "assay": "FACS, Ba/F3 cells expressing the target, goat F(ab')2 anti-human IgG-PE (Example 10)"}, "HLA-DQ2.2 on Ba/F3 cells": {"target": "T3, HLA-DQ2.2 on Ba/F3 cells (human, UniProt P01909 24-254; P01920 33-261)", "T3 construct": "also called Ba/F3-HLA-DQ2.2", "T3 MHC II alpha": "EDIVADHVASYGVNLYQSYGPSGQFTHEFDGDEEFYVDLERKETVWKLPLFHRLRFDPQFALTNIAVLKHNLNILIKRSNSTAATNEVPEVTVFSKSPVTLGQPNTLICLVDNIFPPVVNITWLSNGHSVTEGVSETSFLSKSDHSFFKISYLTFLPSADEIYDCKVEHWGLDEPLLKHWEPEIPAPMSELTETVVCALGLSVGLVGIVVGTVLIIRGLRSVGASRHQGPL", "T3 MHC II beta": "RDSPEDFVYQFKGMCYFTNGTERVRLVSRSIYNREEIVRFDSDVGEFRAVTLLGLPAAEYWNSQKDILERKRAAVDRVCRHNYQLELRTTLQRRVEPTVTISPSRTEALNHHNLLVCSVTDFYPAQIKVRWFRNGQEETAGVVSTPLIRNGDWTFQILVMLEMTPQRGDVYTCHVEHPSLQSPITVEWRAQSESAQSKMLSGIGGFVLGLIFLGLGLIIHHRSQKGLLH", "assay": "FACS, Ba/F3 cells expressing the target, goat F(ab')2 anti-human IgG-PE (Example 9)"}, "[2]": {"target": "T4, HLA-DQ2.5 on Ba/F3 cells (not in the form of a complex with a linked peptide) (human, UniProt P01909 24-254; P01920 33-261)", "T4 construct": "also called Ba/F3-HLA-DQ2.5; No peptide", "T4 MHC II alpha": "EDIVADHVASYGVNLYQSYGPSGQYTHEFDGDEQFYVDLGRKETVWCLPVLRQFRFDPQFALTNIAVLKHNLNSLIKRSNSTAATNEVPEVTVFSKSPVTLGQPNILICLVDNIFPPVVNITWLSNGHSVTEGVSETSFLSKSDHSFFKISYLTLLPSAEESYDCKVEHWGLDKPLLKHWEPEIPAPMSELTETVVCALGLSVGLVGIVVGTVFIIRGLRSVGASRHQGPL", "T4 MHC II beta": "T3 MHC II beta with G135D", "assay": "FACS, Ba/F3 cells expressing the target, goat F(ab')2 anti-human IgG-PE (Example 7)"}, "HLA-DQ7.3 on Ba/F3 cells": {"target": "T5, HLA-DQ7.3 on Ba/F3 cells (human, UniProt P01909 24-254; P01920 33-261)", "T5 construct": "also called Ba/F3-HLA-DQ7.3", "T5 MHC II alpha": "T1 MHC II alpha with A160D", "T5 MHC II beta": "T1 MHC II beta with G13A, L26Y, G45E, A57D, R167H, I185T", "assay": "FACS, Ba/F3 cells expressing the target, goat F(ab')2 anti-human IgG-PE (Example 4.2)"}, "HLA-DR on Ba/F3 cells [3]": {"target": "T6, HLA-DR on Ba/F3 cells (human, UniProt P01903 26-216; P79483 30-227, limits assumed)", "T6 construct": "whole, on cells; also called Ba/F3-HLA-DR", "T6 MHC II alpha": "not shown", "T6 MHC II beta": "not shown", "assay": "FACS, Ba/F3 cells expressing the target, goat F(ab')2 anti-human IgG-PE (Example 10)"}, "HLA-DQ5.1 on Ba/F3 cells": {"target": "T7, HLA-DQ5.1 on Ba/F3 cells (human)", "T7 construct": "also called BaF3-HLA-DQ5.1", "assay": "FACS, Ba/F3 cells expressing the target, goat F(ab')2 anti-human IgG-PE (Example 10)"}, "[4]": {"target": "T8, HLA-DQ2.5 on HLA-DQ2.5 positive PBMC-B cells (human, UniProt P01909 24-254; P01920 33-261)", "T8 construct": "also called DQ2.5 + PBMC; HLA-DQ2.5+PBMC B cell", "T8 MHC II alpha": "T4 MHC II alpha", "T8 MHC II beta": "T3 MHC II beta with G135D", "assay": "FACS, HLA-DQ2.5 positive PBMC with FcR blocking reagent, anti-CD19 stain, Alexa Fluor 555 anti-human IgG Fc antibody (Example 8)"}, "HLA-DQ6.3 on Ba/F3 cells": {"target": "T9, HLA-DQ6.3 on Ba/F3 cells (human, UniProt P01920 33-261)", "T9 construct": "also called BaF3-HLA-DQ6.3", "assay": "FACS, Ba/F3 cells expressing the target, goat F(ab')2 anti-human IgG-PE (Example 4.2)"}, "HLA-DR on Ba/F3 cells [5]": {"target": "T6, HLA-DR on Ba/F3 cells", "assay": "FACS, FIG. 7"}, "HLA-DP on Ba/F3 cells [6]": {"target": "T2, HLA-DP on Ba/F3 cells", "assay": "FACS, FIG. 6"}}, "note": "Substitutions are numbered along the chain they refer to.", "data": [{"binder": "B1", "values": [{"measurement": "binding result", "setting": "HLA-DQ8 on Ba/F3 cells", "result": "no binding (tested: 20 microgram/mL)"}, {"measurement": "binding result", "setting": "HLA-DP on Ba/F3 cells [1]", "result": "no binding (tested: 20 microgram/mL)"}, {"measurement": "binding result", "setting": "HLA-DQ2.2 on Ba/F3 cells", "result": "no binding (tested: 10 microgram/mL)"}, {"measurement": "binding result", "setting": "[2]", "result": "no binding (tested: 10 microgram/mL)"}, {"measurement": "binding result", "setting": "HLA-DQ7.3 on Ba/F3 cells", "result": "no binding (tested: 20 microgram/mL)"}, {"measurement": "binding result", "setting": "HLA-DR on Ba/F3 cells [3]", "result": "no binding (tested: 20 microgram/mL)"}, {"measurement": "binding result", "setting": "HLA-DQ5.1 on Ba/F3 cells", "result": "no binding (tested: 20 microgram/mL)"}, {"measurement": "binding result", "setting": "[4]", "result": "no binding (tested: 10 microgram/mL)"}, {"measurement": "binding result", "setting": "HLA-DQ6.3 on Ba/F3 cells", "result": "no binding (tested: 20 microgram/mL)"}]}, {"binder": "B2", "values": [{"measurement": "binding result", "setting": "HLA-DR on Ba/F3 cells [5]", "result": "binds"}, {"measurement": "binding result", "setting": "HLA-DP on Ba/F3 cells [6]", "result": "binds"}]}]}
